This data set deals with Escherichia coli TOP10. Nature of the data set: shrunken log2 fold change of peptide-encoding DNA abundance (4.5 h post-induction vs induction); higher = less antimicrobial activity (less host growth inhibition). Conditions: time post-induction: 4.5 h; library: site-saturation at positions 5, 18, 19, 20.
On to RRIRPRPPRLPRPRPRPKALPRP, for which the “shrunken log2 fold change” value came to 0.461.

RRIRSRPPRLPRPRPRPKGYPRP: the “shrunken log2 fold change” value came out at 0.00982.

On to RRIRFRPPRLPRPRPRPKGPPRP, for which the “shrunken log2 fold change” value was 0.0269.

RRIRERPPRLPRPRPRPATFPRP: the “shrunken log2 fold change” value is -0.177.

For the sequence RRIRFRPPRLPRPRPRPCTEPRP, the “shrunken log2 fold change” value was -0.431.

For the sequence RRIRKRPPRLPRPRPRPMEGPRP, the “shrunken log2 fold change” value was -0.01.

Consider RRIRDRPPRLPRPRPRPHIGPRP, for which the “shrunken log2 fold change” value was -0.0522.

For the sequence RRIRDRPPRLPRPRPRPVCCPRP, the “shrunken log2 fold change” value turned out to be 0.967.

Regarding RRIRPRPPRLPRPRPRPIYIPRP, the “shrunken log2 fold change” value is -0.36.

Turning to RRIRNRPPRLPRPRPRPTLHPRP, the “shrunken log2 fold change” value was -0.0665.

As to RRIRQRPPRLPRPRPRPPTAPRP, the “shrunken log2 fold change” value came out at 0.504.

In the case of RRIRPRPPRLPRPRPRPKHVPRP, the “shrunken log2 fold change” value was -0.137.

With RRIRWRPPRLPRPRPRPFDTPRP, the “shrunken log2 fold change” value was -0.113.

Consider RRIRMRPPRLPRPRPRPCFTPRP, for which the “shrunken log2 fold change” value is -0.123.

Take RRIRDRPPRLPRPRPRPPQRPRP: the “shrunken log2 fold change” value was 0.719.

RRIRHRPPRLPRPRPRPNSAPRP: the “shrunken log2 fold change” value was -0.0296.

Take RRIRFRPPRLPRPRPRPRPIPRP: the “shrunken log2 fold change” value stood at 0.341.

As to RRIRRRPPRLPRPRPRPGLRPRP, the “shrunken log2 fold change” value amounted to 0.338.

RRIRLRPPRLPRPRPRPVPFPRP: the “shrunken log2 fold change” value came to 0.123.

Turning to RRIRKRPPRLPRPRPRPPRLPRP, the “shrunken log2 fold change” value came to 0.678.

For the sequence RRIRIRPPRLPRPRPRPWTIPRP, the “shrunken log2 fold change” value is -0.0831.

RRIRIRPPRLPRPRPRPVQNPRP: the “shrunken log2 fold change” value was -0.425.

Consider RRIRSRPPRLPRPRPRPITMPRP, for which the “shrunken log2 fold change” value was -0.639.

Consider RRIRHRPPRLPRPRPRPSTEPRP, for which the “shrunken log2 fold change” value was -0.168.

Take RRIRKRPPRLPRPRPRPGYWPRP: the “shrunken log2 fold change” value was -0.00764.

RRIRMRPPRLPRPRPRPPMEPRP: the “shrunken log2 fold change” value came out at 0.696.

For the sequence RRIRCRPPRLPRPRPRPSRNPRP, the “shrunken log2 fold change” value stood at 0.155.

On to RRIRARPPRLPRPRPRPMKKPRP, for which the “shrunken log2 fold change” value was 0.143.

As for RRIRNRPPRLPRPRPRPLQGPRP, the “shrunken log2 fold change” value was 0.0149.

With RRIRLRPPRLPRPRPRPSYMPRP, the “shrunken log2 fold change” value was -0.802.

As for RRIRVRPPRLPRPRPRPFKVPRP, the “shrunken log2 fold change” value was -0.243.

For RRIRYRPPRLPRPRPRPPPYPRP, the “shrunken log2 fold change” value was -0.0871.

For the sequence RRIRTRPPRLPRPRPRPQNWPRP, the “shrunken log2 fold change” value was -0.265.

Take RRIRRRPPRLPRPRPRPLLMPRP: the “shrunken log2 fold change” value worked out at 0.395.

On to RRIRFRPPRLPRPRPRPYHHPRP, for which the “shrunken log2 fold change” value is -1.16.

RRIRDRPPRLPRPRPRPMNAPRP: the “shrunken log2 fold change” value was -0.0396.

In the case of RRIRKRPPRLPRPRPRPPKHPRP, the “shrunken log2 fold change” value is 0.723.

As for RRIRLRPPRLPRPRPRPERVPRP, the “shrunken log2 fold change” value worked out at 0.0357.

Take RRIRVRPPRLPRPRPRPFLAPRP: the “shrunken log2 fold change” value is -0.219.

Regarding RRIRYRPPRLPRPRPRPACSPRP, the “shrunken log2 fold change” value is -0.447.

In the case of RRIRKRPPRLPRPRPRPLDWPRP, the “shrunken log2 fold change” value stood at 0.474.

RRIRNRPPRLPRPRPRPDPAPRP: the “shrunken log2 fold change” value was found to be 0.172.

Turning to RRIRVRPPRLPRPRPRPWGYPRP, the “shrunken log2 fold change” value was -0.0139.

In the case of RRIRNRPPRLPRPRPRPEHPPRP, the “shrunken log2 fold change” value stood at 0.115.

As for RRIRRRPPRLPRPRPRPHDKPRP, the “shrunken log2 fold change” value was determined as 0.302.

For RRIRIRPPRLPRPRPRPHIRPRP, the “shrunken log2 fold change” value is -0.297.

As for RRIRLRPPRLPRPRPRPCGNPRP, the “shrunken log2 fold change” value was 0.0862.

Take RRIRERPPRLPRPRPRPPREPRP: the “shrunken log2 fold change” value stood at 0.87.

Regarding RRIRARPPRLPRPRPRPYERPRP, the “shrunken log2 fold change” value turned out to be 0.0697.

Take RRIRCRPPRLPRPRPRPYSFPRP: the “shrunken log2 fold change” value is -0.414.

On to RRIRNRPPRLPRPRPRPYYIPRP, for which the “shrunken log2 fold change” value is -0.131.

With RRIRWRPPRLPRPRPRPYTSPRP, the “shrunken log2 fold change” value was -0.0806.

In the case of RRIRYRPPRLPRPRPRPPWDPRP, the “shrunken log2 fold change” value worked out at 0.128.

For the sequence RRIRLRPPRLPRPRPRPYKCPRP, the “shrunken log2 fold change” value is -0.0222.

RRIRWRPPRLPRPRPRPFYYPRP: the “shrunken log2 fold change” value is -0.138.

As for RRIRLRPPRLPRPRPRPKCKPRP, the “shrunken log2 fold change” value was -0.223.

For the sequence RRIRQRPPRLPRPRPRPTNCPRP, the “shrunken log2 fold change” value was -0.33.

In the case of RRIRSRPPRLPRPRPRPLGDPRP, the “shrunken log2 fold change” value came out at 0.0783.

In the case of RRIRIRPPRLPRPRPRPTPTPRP, the “shrunken log2 fold change” value stood at 0.387.

RRIRRRPPRLPRPRPRPVYHPRP: the “shrunken log2 fold change” value is -0.0449.

In the case of RRIRVRPPRLPRPRPRPFILPRP, the “shrunken log2 fold change” value was -0.384.

On to RRIRCRPPRLPRPRPRPWYKPRP, for which the “shrunken log2 fold change” value was -1.01.

Regarding RRIRVRPPRLPRPRPRPQPHPRP, the “shrunken log2 fold change” value was determined as 0.0498.

Regarding RRIRVRPPRLPRPRPRPASDPRP, the “shrunken log2 fold change” value was determined as 0.347.

For the sequence RRIRLRPPRLPRPRPRPVMFPRP, the “shrunken log2 fold change” value is -0.268.

As for RRIRPRPPRLPRPRPRPNHHPRP, the “shrunken log2 fold change” value was -0.509.

As to RRIRARPPRLPRPRPRPHMQPRP, the “shrunken log2 fold change” value stood at 2.87.

Turning to RRIRTRPPRLPRPRPRPGRGPRP, the “shrunken log2 fold change” value stood at 0.605.

Consider RRIRGRPPRLPRPRPRPGPMPRP, for which the “shrunken log2 fold change” value is 0.966.

As to RRIRERPPRLPRPRPRPSRFPRP, the “shrunken log2 fold change” value amounted to 0.17.

As to RRIRARPPRLPRPRPRPKMLPRP, the “shrunken log2 fold change” value is 0.332.

As to RRIRVRPPRLPRPRPRPVYKPRP, the “shrunken log2 fold change” value was -0.302.

In the case of RRIRSRPPRLPRPRPRPCFYPRP, the “shrunken log2 fold change” value was -0.39.

As for RRIRSRPPRLPRPRPRPTLQPRP, the “shrunken log2 fold change” value was determined as 0.128.

With RRIRWRPPRLPRPRPRPEWFPRP, the “shrunken log2 fold change” value turned out to be 0.395.

As for RRIRLRPPRLPRPRPRPYQIPRP, the “shrunken log2 fold change” value was -0.489.

RRIRVRPPRLPRPRPRPDGMPRP: the “shrunken log2 fold change” value was -0.454.

As to RRIRWRPPRLPRPRPRPSYEPRP, the “shrunken log2 fold change” value came to 0.086.

Consider RRIRWRPPRLPRPRPRPTGNPRP, for which the “shrunken log2 fold change” value worked out at 0.2.

RRIRQRPPRLPRPRPRPLGEPRP: the “shrunken log2 fold change” value amounted to 0.0549.

As for RRIRNRPPRLPRPRPRPEWAPRP, the “shrunken log2 fold change” value came to 0.0317.

Take RRIRCRPPRLPRPRPRPENGPRP: the “shrunken log2 fold change” value was -0.0135.

Turning to RRIRMRPPRLPRPRPRPLKDPRP, the “shrunken log2 fold change” value is 0.0898.

For the sequence RRIRSRPPRLPRPRPRPVECPRP, the “shrunken log2 fold change” value was -0.0425.

Consider RRIRMRPPRLPRPRPRPKYWPRP, for which the “shrunken log2 fold change” value is 0.164.

Take RRIRTRPPRLPRPRPRPGGAPRP: the “shrunken log2 fold change” value stood at 0.38.

Take RRIRGRPPRLPRPRPRPWGPPRP: the “shrunken log2 fold change” value came out at 0.427.

On to RRIRYRPPRLPRPRPRPYYFPRP, for which the “shrunken log2 fold change” value is -2.19.

For the sequence RRIRWRPPRLPRPRPRPWVSPRP, the “shrunken log2 fold change” value was -0.0613.

Consider RRIRRRPPRLPRPRPRPDEQPRP, for which the “shrunken log2 fold change” value amounted to 0.237.

As to RRIRARPPRLPRPRPRPQDHPRP, the “shrunken log2 fold change” value is -0.208.

Take RRIRGRPPRLPRPRPRPNFYPRP: the “shrunken log2 fold change” value is 0.22.

RRIRSRPPRLPRPRPRPHHNPRP: the “shrunken log2 fold change” value was -0.708.

Regarding RRIRIRPPRLPRPRPRPTYKPRP, the “shrunken log2 fold change” value is -1.09.

Consider RRIRERPPRLPRPRPRPLNQPRP, for which the “shrunken log2 fold change” value was -0.547.

Turning to RRIRARPPRLPRPRPRPRSKPRP, the “shrunken log2 fold change” value was 0.374.

RRIRNRPPRLPRPRPRPRYVPRP: the “shrunken log2 fold change” value was -0.265.

For RRIRVRPPRLPRPRPRPYPKPRP, the “shrunken log2 fold change” value is -0.858.

RRIRYRPPRLPRPRPRPGHMPRP: the “shrunken log2 fold change” value was -0.195.

As to RRIRVRPPRLPRPRPRPNGPPRP, the “shrunken log2 fold change” value came out at 0.144.

As to RRIRLRPPRLPRPRPRPHFDPRP, the “shrunken log2 fold change” value is -0.212.

On to RRIRWRPPRLPRPRPRPYNYPRP, for which the “shrunken log2 fold change” value was -0.331.

For RRIRYRPPRLPRPRPRPMDNPRP, the “shrunken log2 fold change” value is -0.0386.

Regarding RRIRSRPPRLPRPRPRPRHQPRP, the “shrunken log2 fold change” value was -0.119.

For RRIRCRPPRLPRPRPRPPLFPRP, the “shrunken log2 fold change” value was found to be 0.934.

Regarding RRIRKRPPRLPRPRPRPVLDPRP, the “shrunken log2 fold change” value is 0.0689.

With RRIRMRPPRLPRPRPRPRRHPRP, the “shrunken log2 fold change” value is 1.02.

RRIRKRPPRLPRPRPRPATSPRP: the “shrunken log2 fold change” value was 0.288.

RRIRWRPPRLPRPRPRPCGYPRP: the “shrunken log2 fold change” value came to 0.14.

In the case of RRIRARPPRLPRPRPRPHSEPRP, the “shrunken log2 fold change” value was -0.0859.

As to RRIRTRPPRLPRPRPRPGLCPRP, the “shrunken log2 fold change” value is -0.00367.

With RRIRARPPRLPRPRPRPWQKPRP, the “shrunken log2 fold change” value is -0.0111.

For the sequence RRIRARPPRLPRPRPRPQEVPRP, the “shrunken log2 fold change” value is -0.0933.

Take RRIRTRPPRLPRPRPRPVSFPRP: the “shrunken log2 fold change” value was -0.114.

RRIRPRPPRLPRPRPRPPGCPRP: the “shrunken log2 fold change” value stood at 0.264.

In the case of RRIRHRPPRLPRPRPRPSPRPRP, the “shrunken log2 fold change” value was 0.0803.

For RRIRTRPPRLPRPRPRPYFFPRP, the “shrunken log2 fold change” value is -0.684.

Consider RRIRQRPPRLPRPRPRPRCQPRP, for which the “shrunken log2 fold change” value is -0.0547.

As to RRIRERPPRLPRPRPRPTIFPRP, the “shrunken log2 fold change” value is -0.0972.

Regarding RRIRWRPPRLPRPRPRPQEQPRP, the “shrunken log2 fold change” value turned out to be 0.0647.

Consider RRIRERPPRLPRPRPRPIAIPRP, for which the “shrunken log2 fold change” value is -0.00127.

On to RRIRCRPPRLPRPRPRPHQMPRP, for which the “shrunken log2 fold change” value is -0.691.

For the sequence RRIRWRPPRLPRPRPRPVHRPRP, the “shrunken log2 fold change” value came out at 0.181.

Take RRIRWRPPRLPRPRPRPWVFPRP: the “shrunken log2 fold change” value was found to be 0.262.

As to RRIRSRPPRLPRPRPRPACIPRP, the “shrunken log2 fold change” value was -0.31.

For the origin of these results see the supplement of paper PMC9112550, “Optimization of the antimicrobial peptide Bac7 by deep mutational scanning” (BMC Biology, 2022).
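Note: peptides expressed intracellularly from a pBAD plasmid library in pooled LB shake-flask culture, induced with 0.3% L-arabinose, DNA abundance read by NGS, three biological replicates, DESeq2 with apeglm shrinkage.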
